Test results published in patent publication US20230143604A1, “QW DOSING OF GIP RECEPTOR AGONIST PEPTIDE COMPOUNDS AND USES THEREOF” (TAKEDA PHARMACEUTICAL COMPANY LIMITED, priority 2020, published 2023).
Positions count from the first letter of the chain named. Starred links: 1 amine or outer side, 2 acyl side, 3 side chain; linkers in the order of their positions; H or OH if unused. Non-standard residues stand in square brackets, D forms with d. Groups on a side chain read outwards from the residue. No end group written: not given here. *: point of attachment. C18 diacid = O=C(O)CCCCCCCCCCCCCCCCC(=O)*; C17 diacid = O=C(O)CCCCCCCCCCCCCCCC(=O)*; γGlu = O=C(O)[C@H](CCC(=O)[*:2])N[*:1]; NMeY = CN[C@@H](Cc1ccc(O)cc1)C(=O)O; AEEA = NCCOCCOCC(=O)O; Aib = CC(C)(N)C(=O)O

T1: full-length human GIPR with an N-terminal FLAG tag (human, UniProt P48546 22-466)
T1 sequence (looked up): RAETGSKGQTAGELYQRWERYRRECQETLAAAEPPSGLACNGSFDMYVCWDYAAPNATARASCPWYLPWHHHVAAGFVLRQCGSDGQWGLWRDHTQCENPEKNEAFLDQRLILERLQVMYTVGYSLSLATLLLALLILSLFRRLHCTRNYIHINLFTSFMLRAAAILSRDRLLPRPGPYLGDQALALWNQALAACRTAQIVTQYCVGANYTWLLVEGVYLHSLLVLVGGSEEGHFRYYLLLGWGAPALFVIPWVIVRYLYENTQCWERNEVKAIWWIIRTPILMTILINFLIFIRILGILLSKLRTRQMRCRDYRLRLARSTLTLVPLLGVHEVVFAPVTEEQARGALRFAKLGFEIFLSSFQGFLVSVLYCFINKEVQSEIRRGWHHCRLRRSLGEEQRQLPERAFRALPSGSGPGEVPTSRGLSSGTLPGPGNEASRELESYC

B1: Compound No. 153 (peptide)
peptide: Y[Aib]EGTFISDYSIALDKIAQ[Aib]K([AEEA-AEEA-γGlu-γGlu-C18 diacid])FVEWLLAQRG-OH
B2: Compound No. 21 (peptide)
peptide: [NMeY][Aib]EGTFISDYSIALDR[Aib]AQ[Aib]K([AEEA-AEEA-γGlu-γGlu-C18 diacid])FVNWLLAQRGGGGS-NH2
B3: Compound No. 141 (peptide)
peptide: Y[Aib]EGTFISDYSI[Aib]LDR[Aib]AQ[Aib]K([AEEA-AEEA-γGlu-γGlu-C18 diacid])FVNWLLAQRG-OH
modifications: not fully specified (N-terminus)
B4: Compound No. 143 (peptide)
peptide: Y[Aib]EGTFISDYSIALDKIAQRK([AEEA-AEEA-γGlu-γGlu-C17 diacid])FVEWLLAQRG-OH
B5: Compound No. 154 (peptide)
peptide: Y[Aib]EGTFISDYSIALDKAAQ[Aib]K([AEEA-AEEA-γGlu-γGlu-C18 diacid])FVEWLLAQRG-OH
B6: Compound No. 138 (peptide)
peptide: YXEGTFISDYSIAXDRXAQXNFVNWLLAQSPSSGAPPPS
modifications: N-terminus H; Aib at 2,17,20; Lys(G5-C18 diacid) at 14; C-terminal OH
B7: Compound No. 142 (peptide)
peptide: Y[Aib]EGTFISDYSIALDKIAQQK([AEEA-AEEA-γGlu-γGlu-C17 diacid])FVEWLLAQRG-OH
B8: Compound No. 1 (peptide)
peptide: [NMeY][Aib]EGTFISDYSIALDR[Aib]HQ[Aib]NFVNWLLAQK([AEEA-AEEA-γGlu-C18 diacid])PSSGAPPPS-NH2
B9: Compound No. 139 (peptide)
peptide: YXEGTFISDYSIXXDRXAQXDFVEWLLAQRG
modifications: N-terminus H; Aib at 2,13,17,20; Lys(G5-C18 diacid) at 14; C-terminal OH
B10: Compound No. 148 (peptide)
peptide: B9 peptide with X17A, X20A
modifications: N-terminus H; Aib at 2,13; Lys(G5-C18 diacid) at 14; C-terminal OH
B11: Compound No. 146 (peptide)
peptide: B9 peptide with X20A
modifications: N-terminus H; Aib at 2,13,17; Lys(G5-C18 diacid) at 14; C-terminal OH
B12: Compound No. 149 (peptide)
peptide: B9 peptide with X13A, X20A
modifications: N-terminus H; Aib at 2,17; Lys(G5-C18 diacid) at 14; C-terminal OH
B13: Compound No. 151 (peptide)
peptide: B9 peptide with R16S, X17A, E24N
modifications: N-terminus H; Aib at 2,13,20; Lys(G5-C18 diacid) at 14; C-terminal OH
B14: Compound No. 152 (peptide)
peptide: B9 peptide with R16S, X20A, E24N
modifications: N-terminus H; Aib at 2,13,17; Lys(G5-C18 diacid) at 14; C-terminal OH
B15: Compound No. 144 (peptide)
peptide: B9 peptide with X13A
modifications: N-terminus H; Aib at 2,17,20; Lys(G5-C18 diacid) at 14; C-terminal OH
B16: Compound No. 147 (peptide)
peptide: B9 peptide with X20R
modifications: N-terminus H; Aib at 2,13,17; Lys(G5-C18 diacid) at 14; C-terminal OH
B17: Compound No. 145 (peptide)
peptide: B9 peptide with X17A
modifications: N-terminus H; Aib at 2,13,20; Lys(G5-C18 diacid) at 14; C-terminal OH
B18: Compound No. 150 (peptide)
peptide: B9 peptide with R16S, E24N
modifications: N-terminus H; Aib at 2,13,17,20; Lys(G5-C18 diacid) at 14; C-terminal OH
B19: Compound No. 22 (peptide)
peptide: [NMeY][Aib]EGTFISDYSIAK([G5-γGlu-C17 diacid])DR[Aib]AQ[Aib]DFVNWLLAQRPSSGAPPPS-NH2
B20: Compound No. 140 (peptide)
peptide: H-Y[Aib]EGTFISDYSIALDR[Aib]AQ[Aib]K([AEEA-AEEA-γGlu-γGlu-C17 diacid])FVNWLLAQRG-OH
SMILES: CC[C@H](C)[C@H](NC(=O)[C@H](CO)NC(=O)[C@H](Cc1ccc(O)cc1)NC(=O)[C@H](CC(=O)O)NC(=O)[C@H](CO)NC(=O)[C@@H](NC(=O)[C@H](Cc1ccccc1)NC(=O)[C@@H](NC(=O)CNC(=O)[C@H](CCC(=O)O)NC(=O)C(C)(C)NC(=O)[C@@H](N)Cc1ccc(O)cc1)[C@@H](C)O)[C@@H](C)CC)C(=O)N[C@@H](C)C(=O)N[C@@H](CC(C)C)C(=O)N[C@@H](CC(=O)O)C(=O)N[C@@H](CCCNC(=N)N)C(=O)NC(C)(C)C(=O)N[C@@H](C)C(=O)N[C@@H](CCC(N)=O)C(=O)NC(C)(C)C(=O)N[C@@H](CCCCNC(=O)COCCOCCNC(=O)COCCOCCNC(=O)CC[C@H](NC(=O)CC[C@H](NC(=O)CCCCCCCCCCCCCCCC(=O)O)C(=O)O)C(=O)O)C(=O)N[C@@H](Cc1ccccc1)C(=O)N[C@H](C(=O)N[C@@H](CC(N)=O)C(=O)N[C@@H](Cc1c[nH]c2ccccc12)C(=O)N[C@@H](CC(C)C)C(=O)N[C@@H](CC(C)C)C(=O)N[C@@H](C)C(=O)N[C@@H](CCC(N)=O)C(=O)N[C@@H](CCCNC(=N)N)C(=O)NCC(=O)O)C(C)C
B21: Compound No. 155 (peptide)
peptide: Y[Aib]EGTFISDYSIALDK[Aib]AQAK([AEEA-AEEA-γGlu-γGlu-C18 diacid])FVEWLLAQRG-OH
modifications: N-terminus assumed
SMILES: CC[C@H](C)[C@H](NC(=O)[C@H](CO)NC(=O)[C@H](Cc1ccc(O)cc1)NC(=O)[C@H](CC(=O)O)NC(=O)[C@H](CO)NC(=O)[C@@H](NC(=O)[C@H](Cc1ccccc1)NC(=O)[C@@H](NC(=O)CNC(=O)[C@H](CCC(=O)O)NC(=O)C(C)(C)NC(=O)[C@@H](N)Cc1ccc(O)cc1)[C@@H](C)O)[C@@H](C)CC)C(=O)N[C@@H](C)C(=O)N[C@@H](CC(C)C)C(=O)N[C@@H](CC(=O)O)C(=O)N[C@@H](CCCCN)C(=O)NC(C)(C)C(=O)N[C@@H](C)C(=O)N[C@@H](CCC(N)=O)C(=O)N[C@@H](C)C(=O)N[C@@H](CCCCNC(=O)COCCOCCNC(=O)COCCOCCNC(=O)CC[C@H](NC(=O)CC[C@H](NC(=O)CCCCCCCCCCCCCCCCC(=O)O)C(=O)O)C(=O)O)C(=O)N[C@@H](Cc1ccccc1)C(=O)N[C@H](C(=O)N[C@@H](CCC(=O)O)C(=O)N[C@@H](Cc1c[nH]c2ccccc12)C(=O)N[C@@H](CC(C)C)C(=O)N[C@@H](CC(C)C)C(=O)N[C@@H](C)C(=O)N[C@@H](CCC(N)=O)C(=O)N[C@@H](CCCNC(=N)N)C(=O)NCC(=O)O)C(C)C
B22: Compound No. 136 (peptide)
peptide: [NMeY][Aib]EGTFISDYSIALDR[Aib]K([Gly-Gly-Pro-Ala-Pro-Ala-Pro-γGlu-C18 diacid])Q[Aib]DFVNWLLAQSPG-OH
modifications: N-terminus assumed
SMILES: CC[C@H](C)[C@H](NC(=O)[C@H](CO)NC(=O)[C@H](Cc1ccc(O)cc1)NC(=O)[C@H](CC(=O)O)NC(=O)[C@H](CO)NC(=O)[C@@H](NC(=O)[C@H](Cc1ccccc1)NC(=O)[C@@H](NC(=O)CNC(=O)[C@H](CCC(=O)O)NC(=O)C(C)(C)NC(=O)[C@H](Cc1ccc(O)cc1)NC)[C@@H](C)O)[C@@H](C)CC)C(=O)N[C@@H](C)C(=O)N[C@@H](CC(C)C)C(=O)N[C@@H](CC(=O)O)C(=O)N[C@@H](CCCNC(=N)N)C(=O)NC(C)(C)C(=O)N[C@@H](CCCCNC(=O)CNC(=O)CNC(=O)[C@@H]1CCCN1C(=O)[C@H](C)NC(=O)[C@@H]1CCCN1C(=O)[C@H](C)NC(=O)[C@@H]1CCCN1C(=O)CC[C@H](NC(=O)CCCCCCCCCCCCCCCCC(=O)O)C(=O)O)C(=O)N[C@@H](CCC(N)=O)C(=O)NC(C)(C)C(=O)N[C@@H](CC(=O)O)C(=O)N[C@@H](Cc1ccccc1)C(=O)N[C@H](C(=O)N[C@@H](CC(N)=O)C(=O)N[C@@H](Cc1c[nH]c2ccccc12)C(=O)N[C@@H](CC(C)C)C(=O)N[C@@H](CC(C)C)C(=O)N[C@@H](C)C(=O)N[C@@H](CCC(N)=O)C(=O)N[C@@H](CO)C(=O)N1CCC[C@H]1C(=O)NCC(=O)O)C(C)C
B23: Compound No. 14 (peptide)
peptide: [NMeY][Aib]EGTFISDYSI[Aib]K([AEEA-AEEA-γGlu-γGlu-C17 diacid])DR[Aib]AQ[Aib]NFVNWLLAQRPSSGAPPPS-NH2
B24: Compound No. 23 (peptide)
peptide: [NMeY][Aib]EGTFISDYSIALDRK([AEEA-AEEA-γGlu-C18 diacid])AQ[Aib]DFVNWLLAQRPSSGAPPPS-NH2

Each binder was assayed against full-length human GLP-1R with an N-terminal FLAG tag (human, UniProt P43220 24-463) (assay: cell-based or functional assay).

Binder	Human GLP1R cAMP EC50, HEK293T [nM]
B1	6.76
B2	34.7
B3	5.25
B4	4.9
B5	8.91
B6	2.04
B7	158
B8	10.5
B9	8.91
B10	8.71
B11	7.08
B12	15.8
B13	5.01
B14	33.1
B15	15.1
B16	1.66
B17	9.33
B18	13.5
B19	525
B20	3.98
B21	85.1
B22	63.1
B23	172
B24	50.1

What follows are binders tested against T1, full-length human GIPR with an … (assay: cell-based or functional assay).

Binder	Human GIPR cAMP EC50, HEK293T [nM]
B1	0.0003
B2	0.0004
B3	0.0005
B4	0.0004
B5	0.0003
B6	0.0008
B7	0.0004
B8	0.0004
B9	0.0015
B10	0.0004
B11	0.0008
B12	0.0007
B13	0.0003
B14	0.0006
B15	0.0009
B16	0.0008
B17	0.0018
B18	0.0004
B19	0.0005
B20	0.0007
B21	0.0008
B22	0.0007
B23	0.0003
B24	0.0003
